Experimental data published in the supplement of paper PMC10724198.
± gives the standard deviation of the averaged measurements.

Tested on: Saccharomyces cerevisiae
Assay: protein stability index of tFT-peptide fusion (C-terminal peptide) (PSI (0-1 scale)); higher = more stable (slower turnover)
Settings: genetic background: wild type; temperature: 30 C
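Also: PSI is a weighted mean of sequencing reads over stability bins, variants kept only with over 10 reads, mCherry proximal and sfGFP distal, peptide attached via GGGS linker.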

Sequence | protein stability index
PPPGPNPPSSPS | 0.758 ± 0.036
PPPGPRQRPPPH | 0.665 ± 0.087
PPPHASLSHCHS | 0.687 ± 0.11
PPPHGPPPPPLP | 0.648 ± 0.055
PPPHHPIMPAKQ | 0.63 ± 0.027
PPPHPPLPTFDP | 0.707 ± 0.05
PPPHPPPLAIPP | 0.767 ± 0.075
PPPISPRPPRRA | 0.708 ± 0.0094
PPPLCSIPPILL | 0.705 ± 0.034
PPPLHPPPPPPA | 0.704 ± 0.037
PPPLLPHLLLPP | 0.611 ± 0.12
PPPLLSHPFLPP | 0.69 ± 0.057
PPPLPAPPFSVF | 0.649 ± 0.028
PPPLPLPPITPT | 0.53 ± 0.078
PPPLPPGPALPL | 0.732 ± 0.012
PPPLPPICTRPI | 0.627 ± 0.099
PPPLPPPILLRF | 0.598 ± 0.024
PPPLPPPPLPGL | 0.676 ± 0.0084
PPPLPPPSPCPL | 0.702 ± 0.018
PPPLPPSPLLPP | 0.701 ± 0.019
PPPLPRPFPPFP | 0.697 ± 0.019

Sequence | protein stability index
PPPLPSPLPLPP | 0.644 ± 0.033
PPPLRLPQSRLP | 0.722 ± 0.09
PPPLSPFTTPPS | 0.7493 ± 0.00077
PPPLSQSPPSRR | 0.612 ± 0.029
PPPLTSPPHPPP | 0.724 ± 0.029
PPPPAPPPAPPP | 0.558 ± 0.019
PPPPAPYPNYYS | 0.542 ± 0.0062
PPPPCPSYLPPS | 0.693 ± 0.046
PPPPFAAALSTP | 0.69 ± 0.039
PPPPFLCSPFVA | 0.6905 ± 0.00081
PPPPGLPSSPPP | 0.625 ± 0.051
PPPPHAPSASPP | 0.668 ± 0.022
PPPPHSFTPSGH | 0.673 ± 0.12
PPPPLPASHPSP | 0.707 ± 0.044
PPPPLPHPALPP | 0.675 ± 0.04
PPPPLPPLPGTL | 0.657 ± 0.045
PPPPLPPPPVLT | 0.7 ± 0.051
PPPPLPPPSPPL | 0.7319 ± 0.0043
PPPPPAPPPLCY | 0.663 ± 0.045
PPPPPHHRPPSS | 0.709 ± 0.077
PPPPPHLPPLTP | 0.711 ± 0.054

Sequence | protein stability index
PPPPPHPRSPLS | 0.738 ± 0.037
PPPPPHPTSPFP | 0.751 ± 0.048
PPPPPHVHPPSP | 0.689 ± 0.042
PPPPPLPALPLL | 0.84 ± 0.081
PPPPPLPPPPPP | 0.593 ± 0.021
PPPPPLSLLLPP | 0.703 ± 0.032
PPPPPNPIPPTF | 0.713 ± 0.028
PPPPPPLLPPPA | 0.7302 ± 0.0037
PPPPPPLPAPPH | 0.693 ± 0.029
PPPPPPPFCLAP | 0.718 ± 0.0079
PPPPPPPHSSLS | 0.709 ± 0.0078
PPPPPPPLAPPL | 0.685 ± 0.021
PPPPPPPLPHPP | 0.595 ± 0.058
PPPPPPPLRFIF | 0.618 ± 0.035
PPPPPPPPFSHS | 0.712 ± 0.022
PPPPPPPPLPAP | 0.664 ± 0.018
PPPPPPPPPLLP | 0.7031 ± 0.006
PPPPPPPPPSTP | 0.744 ± 0.016
PPPPPPPPRRPP | 0.595 ± 0.047
PPPPPPPRGPPR | 0.627 ± 0.014
PPPPPPPRPLTP | 0.68 ± 0.059

Sequence | protein stability index
PPPPPPPSPPFS | 0.783 ± 0.031
PPPPPPPSSPPP | 0.732 ± 0.012
PPPPPPQTPRPR | 0.683 ± 0.061
PPPPPPSPLPPY | 0.703 ± 0.01
PPPPPPSPPRLP | 0.592 ± 0.03
PPPPPPTPPSLS | 0.7449 ± 0.001
PPPPPRPRSLLS | 0.711 ± 0.063
PPPPPSSRPLSN | 0.627 ± 0.079
PPPPPTPPPARP | 0.695 ± 0.054
PPPPPVLPNRIP | 0.781 ± 0.04
PPPPQPTAPPNP | 0.717 ± 0.049
PPPPSLLPLSLP | 0.608 ± 0.02
PPPPSPPLTRSL | 0.783 ± 0.08
PPPPTLPPPPLS | 0.722 ± 0.14
PPPPTTATRQQT | 0.691 ± 0.016
PPPQLRPLPQSL | 0.704 ± 0.018
PPPQYILPPRFP | 0.691 ± 0.017
PPPRPCRAPAAA | 0.668 ± 0.089
